# Test results published in the RNAGym collection of RNA variant scans (doi:10.1021/acssynbio.7b00057).
# B1: Pistol ribozyme (parent)
# chain: GGGUCGUUGUUCCAUAAUCGCGUGGAUAUGGCACGCAAGUUUCUACCGGGCACCGUAAAUGUCCGACUGGAGCCGUUCGGGCGGCUAUAAACAGACCUCAGGCCCGAAGCGUGGCGGCACCUGCCGCCGGUGGUAAAAAAGAUCGGAAGAGCACACGUCU
# Variants of: B1
# Assay: aptazyme ON/OFF ratio, guanine; higher = stronger switching; co-transcriptional cleavage with and without guanine
row,Variant,aptazyme ON/OFF ratio
1,U8C G9C C12G C13A,1.14
2,U8C G9C C12G C13U,1.13
3,U8C G9C C12G C13G,1.14
4,U8C G9A U11G C12A C13G,1.29
5,U8C G9A U11G C12A C13U,1.27
6,U8C G9A U11G C12A C13A,1.22
7,U8C G9C C12A C13U,1.1
8,U8C G9C C12A C13G,1.1
9,U8C G9C C12A C13A,1.08
10,U8C G9C U10C C12A,1.06
11,U8C G9C U10C C12G,1.06
12,U8C G9C U10C C12U,1.07
13,U8C G9C U10A U11G C12G C13U,1.09
14,U8C G9C U10A U11G C12G C13G,1.11
15,U8C G9C U10A U11G C12G C13A,1.19
16,U8C G9C U10C U11C C12A,1.02
17,U8C G9C U10C U11C C12G,1.08
18,U8C G9A U11C C12G C13A,1.24
19,U8C G9A U11C C12G C13G,1.26
20,U8C G9A U11C C12G C13U,1.18
21,U8C G9C U10C U11A C12G C13G,1.08
22,U8C G9C U10C U11A C12G C13A,1.06
23,U8C G9C U10C U11A C12G C13U,1.1
24,U8C G9C U10A U11C,1.05

row,Variant,aptazyme ON/OFF ratio
1,U8C G9C U10A U11G,1.16
2,U8C G9C U10A U11A,1.24
3,U8C G9C U10A U11G C13U,1.13
4,U8C G9C U10A U11G C13G,1.2
5,U8C G9C U10A U11G C13A,1.2
6,U8C G9C U10A U11C C12G C13A,1.23
7,U8C G9C U10A U11C C12G C13U,1.27
8,U8C G9C U10A U11C C12G C13G,1.16
9,U8C G9C U10C U11A C13U,1.04
10,U8C G9C U10C U11A C13A,1.01
11,U8C G9C U10C U11A C13G,1.08
12,U8C G9C U10A U11A C12G C13A,1.1
13,U8C G9C U10A U11A C12G C13U,1.12
14,U8C G9C U10A U11A C12G C13G,1.18
15,U8C G9C U10C C13U,1.12
16,U8C G9C U10C C13G,1.05
17,U8C G9C U10C C13A,1.01
18,U8C G9C U10A C13G,1.16
19,U8C G9C U10A C13U,1.07
20,U8C G9C U10A C13A,1.08
21,U8C G9C U10C C12G C13A,1.07
22,U8C G9C U10C C12G C13G,1.12
23,U8C G9C U10C C12G C13U,1.08
24,U8C G9A U11A C12G C13G,1.2

row,Variant,aptazyme ON/OFF ratio
1,U8C G9A U11A C12G C13A,1.14
2,U8C G9A U11A C12G C13U,1.23
3,U8C G9A U11G C12G,1.3
4,U8C G9A U11G C12U,1.29
5,U8C G9A U11G C12A,1.06
6,U8C G9A U11C C13A,1.06
7,U8C G9A U11C C13G,1.04
8,U8C G9A U11C C13U,1.04
9,U8C G9C U10A C12G C13G,1.15
10,U8C G9C U10A C12G C13A,1.2
11,U8C G9C U10A C12G C13U,1.2
12,U8C G9A U11G C12U C13G,1.29
13,U8C G9A U11G C12U C13U,1.22
14,U8C G9A U11G C12U C13A,1.34
15,U8C G9C U10C U11C,0.964
16,U8C G9C U10C U11A,1.02
17,U8C G9C C12U C13G,1.07
18,U8C G9C C12U C13U,1.13
19,U8C G9C C12U C13A,1.05
20,U8C G9A U11G C13U,1.15
21,U8C G9A U11G C13G,1.27
22,U8C G9A U11G C13A,1.23
23,U8C G9C U10C U11A C12G,1.01
24,U8C G9C U10C U11A C12A,1.04

row,Variant,aptazyme ON/OFF ratio
1,U8C G9C U10C U11A C12U,1.02
2,U8C G9C,1.12
3,U8C G9C C12U,1.08
4,U8C G9C C12G,1.19
5,U8C G9C C12A,1.16
6,U8C G9A U11G,1.45
7,U8C G9A U11C,1.09
8,U8C G9C U10C U11C C12A C13G,1.04
9,U8C G9C U10C U11C C12A C13A,1.02
10,U8C G9C U10C U11C C12A C13U,1.02
11,U8C G9C U10A U11C C12U,1.21
12,U8C G9C U10A U11C C12G,1.2
13,U8C G9C U10A U11C C12A,1.24
14,U8C G9A U11A C13U,1.22
15,U8C G9A U11A C13G,1.04
16,U8C G9A U11A C13A,1.2
17,U8C G9C U10A C12U C13G,1.12
18,U8C G9C U10A C12U C13U,1.14
19,U8C G9C U10A C12U C13A,1.08
20,U8C G9C U10A U11C C13U,1.14
21,U8C G9C U10A U11C C13A,1.23
22,U8C G9C U10A U11C C13G,1.2
23,U8C G9C U10C U11C C12G C13A,1.12
24,U8C G9C U10C U11C C12G C13G,1.09

row,Variant,aptazyme ON/OFF ratio
1,U8C G9C U10C U11C C12G C13U,1.06
2,U8C G9C U10A C12A C13A,1.09
3,U8C G9C U10A C12A C13G,1.15
4,U8C G9C U10A C12A C13U,1.11
5,U8C G9A U11A C12A C13U,1.34
6,U8C G9A U11A C12A C13G,1.13
7,U8C G9A U11A C12A C13A,1.15
8,U8C G9A U11A C12G,1.18
9,U8C G9A U11A C12U,1.1
10,U8C G9C U10A U11G C12G,1.32
11,U8C G9C U10A U11G C12A,1.07
12,U8C G9C U10A U11G C12U,1.22
13,U8C G9C U10C C12U C13U,1.06
14,U8C G9C U10C C12U C13G,1.07
15,U8C G9C U10C C12U C13A,1.02
16,U8C G9C U10A U11G C12A C13G,1.09
17,U8C G9C U10A U11G C12A C13U,1.07
18,U8C G9C U10A U11G C12A C13A,1.16
19,U8C G9C U10A U11G C12U C13U,1.22
20,U8C G9C U10A U11G C12U C13G,1.15
21,U8C G9C U10A U11G C12U C13A,1.19
22,U8C G9C U10C C12A C13A,1
23,U8C G9C U10C C12A C13G,1.08
24,U8C G9C U10C C12A C13U,1.03

row,Variant,aptazyme ON/OFF ratio
1,U8C G9C U10A U11A C12A,1.12
2,U8C G9C U10A U11A C12G,1.25
3,U8C G9C U10A U11A C12U,1.05
4,U8C G9C U10A U11A C12A C13A,1.07
5,U8C G9C U10A U11A C12A C13U,1.08
6,U8C G9C U10A U11A C12A C13G,1.11
7,U8C G9A U11C C12U C13G,1.08
8,U8C G9A U11C C12U C13A,1.16
9,U8C G9A U11C C12U C13U,1.22
10,U8C G9C U10A U11A C12U C13G,1.1
11,U8C G9C U10A U11A C12U C13A,1.09
12,U8C G9C U10A U11A C12U C13U,1.08
13,U8C G9A U11A C12U C13A,1.21
14,U8C G9A U11A C12U C13U,1.29
15,U8C G9A U11A C12U C13G,1.14
16,U8C G9C U10A U11C C12A C13G,1.18
17,U8C G9C U10A U11C C12A C13U,1.22
18,U8C G9C U10A U11C C12A C13A,1.27
19,U8C G9C U10C U11A C12A C13A,1.04
20,U8C G9C U10C U11A C12A C13U,1.02
21,U8C G9C U10C U11A C12A C13G,1.05
22,U8C G9A U11C C12G,1.29
23,U8C G9A U11C C12A,1.3
24,U8C G9A U11C C12U,1.16

row,Variant,aptazyme ON/OFF ratio
1,U8C G9A U11G C12G C13G,1.19
2,U8C G9A U11G C12G C13A,1.19
3,U8C G9A U11G C12G C13U,1.11
4,U8C G9C U10C U11A C12U C13G,1.02
5,U8C G9C U10C U11A C12U C13A,1.02
6,U8C G9C U10C U11A C12U C13U,1.01
7,U8C G9A U11C C12A C13U,1.17
8,U8C G9A U11C C12A C13A,1.15
9,U8C G9A U11C C12A C13G,1.14
10,U8C G9C C13A,1.05
11,U8C G9C C13G,1.06
12,U8C G9C C13U,1.08
13,U8C G9C U10A U11C C12U C13U,1.19
14,U8C G9C U10A U11C C12U C13G,1.17
15,U8C G9C U10A U11C C12U C13A,1.19
16,U8C G9C U10A U11A C13U,1.09
17,U8C G9C U10A U11A C13G,1.17
18,U8C G9C U10A U11A C13A,1.15
19,U8C G9C U10A C12G,1.25
20,U8C G9C U10A C12U,1.13
21,U8C G9C U10A C12A,1.11
22,U8C G9C U10A,1.51
23,U8C G9C U10C,1.97
